This is an account of results in patent US20220023399A1, “BLOOD COMPONENT POTENTIATION OF LYTIC PROTEIN ANTI-BACTERIAL ACTIVITY AND METHODS AND USES THEREOF” (priority 2017, published 2022).

Test [1] concerns staphylococci (strain not given). The test is described as follows: Checkerboard analysis of PlySs2/CF-301 with AMPs, antimicrobial proteins and albumins in heat-inactivated human serum. In kind it is cell-based, S. aureus. The settings on record: in combination with PlySs2/CF-301.
Test [2] has as its system S. aureus (strain not given). Nature of the test: MIC analysis of various lysins, chimeric lysins and antibiotics in MHB and human serum. In kind it is cell-based. The settings on record: Table 2; for Fold decrease in MIC: human serum vs MHB.
The test system of test [3] is S. aureus (strain not given). Described as above. In kind it is cell-based. As to conditions: Table 14 (Example 2); for Fold decrease in MIC: human serum vs MHB. The protocol:
To further evaluate the binding domain relevance to the serum component effect, various chimerics were constructed by replacing or swapping out one binding domain for another. Chimeric lysins having the Sal1 CHAP catalytic domain with ClyS binding domain, PlySs2 (CF-301) binding domain, or lysostaphin binding domain were assayed for MIC using MHB versus human serum. the results are depicted below in TABLE 14.

Test [4] relates to S. aureus strain ATCC 700699. Nature of the test: Confocal/deconvolution microscopy of cell surface binding. The settings on record: 0.25×MIC.
The subject of a further test is S. aureus strain MW2. Nature of the test: Fluorescence microscopy of binding after preincubation in different serum types. As to conditions: 0.25×MIC. The protocol:
The effect of preincubation of staphylococci with multiple different serum types and MHB on subsequent labeling with a 0.25×MIC amount of CF-301^RHD was also examined by fluorescence microscopy (FIG. 11).
Fluorescence microscopy: Binding of PlySs2 (CF-301) to the Bacterial Cell Surface in Different Serum Environments. Mid-log phase MRSA strain MW2 was suspended at 1×10^7 CFU/mL in either CAMHB or 100% serum from either human (Sigma-Aldrich), rabbit (Gibco), rat (BioreclamationIVT), or mouse (BioreclamationIVT) sources and incubated for 30 minutes at 37° C. An additional mouse serum sample was also tested, containing 40 mg/mL HSA (Albumin Biosciences). After the preincubation, bacteria were washed with 1× phosphate-buffered saline (PBS) and resuspended in 50 μl of PBS and attached to the surface of a poly-L-lysine-coated cover glass. The cells were washed and treated with CF-301^RHOD (2 μg/mL in PBS) for 10 minutes before washing and counterstaining with DAPI. Slides were mounted in 50% glycerol and 0.1% p-phenylenediamine in PBS, pH 8. Fluorescence microscopy was performed using a Nikon Eclipse E400 microscope, equipped with a Nikon 100×/1.25 oil immersion lens, and a Retiga EXi fast 1394 camera (QImaging). QCapture Pro version 5.1.1.14 software (QImaging) was used for image capture and processing.

B1: Lysozyme (Human, recombinant): human lysozyme, recombinant expressed in rice (protein, UniProt P61626 19-148, looked up)
Lysozyme C: KVFERCELARTLKRLGMDGYRGISLANWMCLAKWESGYNTRATNYNAGDRSTDYGIFQINSRYWCNDGKTPGAVNACHLSCSALLQDNIADAVACAKRVVRDPQGIRAWVAWRNRCQNRDVRQYVQGCGV
B1: the ΣFICavg in test [1] is given as no more than 0.05.

B2: Lysozyme (Human neutrophil derived): lysozyme, human neutrophil-derived (protein, UniProt P61626 19-148, looked up)
Lysozyme C: KVFERCELARTLKRLGMDGYRGISLANWMCLAKWESGYNTRATNYNAGDRSTDYGIFQINSRYWCNDGKTPGAVNACHLSCSALLQDNIADAVACAKRVVRDPQGIRAWVAWRNRCQNRDVRQYVQGCGV
Regarding B2, the ΣFICavg in test [1] was no more than 0.056.

B3: Lactoferrin (Bovine colostrum): lactoferrin, bovine colostrum (Sigma-Aldrich) (protein, UniProt P24627 20-708, looked up)
Lactotransferrin: APRKNVRWCTISQPEWFKCRRWQWRMKKLGAPSITCVRRAFALECIRAIAEKKADAVTLDGGMVFEAGRDPYKLRPVAAEIYGTKESPQTHYYAVAVVKKGSNFQLDQLQGRKSCHTGLGRSAGWIIPMGILRPYLSWTESLEPLQGAVAKFFSASCVPCIDRQAYPNLCQLCKGEGENQCACSSREPYFGYSGAFKCLQDGAGDVAFVKETTVFENLPEKADRDQYELLCLNNSRAPVDAFKECHLAQVPSHAVVARSVDGKEDLIWKLLSKAQEKFGKNKSRSFQLFGSPPGQRDLLFKDSALGFLRIPSKVDSALYLGSRYLTTLKNLRETAEEVKARYTRVVWCAVGPEEQKKCQQWSQQSGQNVTCATASTTDDCIVLVLKGEADALNLDGGYIYTAGKCGLVPVLAENRKSSKHSSLDCVLRPTEGYLAVAVVKKANEGLTWNSLKDKKSCHTAVDRTAGWNIPMGLIVNQTGSCAFDEFFSQSCAPGADPKSRLCALCAGDDQGLDKCVPNSKEKYYGYTGAFRCLAEDVGDVAFVKNDTVWENTNGESTADWAKNLNREDFRLLCLDGTRKPVTEAQSCHLAVAPNHAVVSRSDRAAHVKQVLLHQQALFGKNGKNCPDKFCLFKSETKNLLFNDNTECLAKLGGRPTYEEYLGTEYVTAIANLKKCSTSPLLEACAFLTR
Regarding B3, in test [1], the ΣFICavg is reported as no less than 1.16.

B4: Lactoferrin (Human milk): lactoferrin, human milk (Sigma-Aldrich) (protein, UniProt P02788 20-710, looked up)
Lactotransferrin: GRRRSVQWCAVSQPEATKCFQWQRNMRKVRGPPVSCIKRDSPIQCIQAIAENRADAVTLDGGFIYEAGLAPYKLRPVAAEVYGTERQPRTHYYAVAVVKKGGSFQLNELQGLKSCHTGLRRTAGWNVPIGTLRPFLNWTGPPEPIEAAVARFFSASCVPGADKGQFPNLCRLCAGTGENKCAFSSQEPYFSYSGAFKCLRDGAGDVAFIRESTVFEDLSDEAERDEYELLCPDNTRKPVDKFKDCHLARVPSHAVVARSVNGKEDAIWNLLRQAQEKFGKDKSPKFQLFGSPSGQKDLLFKDSAIGFSRVPPRIDSGLYLGSGYFTAIQNLRKSEEEVAARRARVVWCAVGEQELRKCNQWSGLSEGSVTCSSASTTEDCIALVLKGEADAMSLDGGYVYTAGKCGLVPVLAENYKSQQSSDPDPNCVDRPVEGYLAVAVVRRSDTSLTWNSVKGKKSCHTAVDRTAGWNIPMGLLFNQTGSCKFDEYFSQSCAPGSDPRSNLCALCIGDEQGENKCVPNSNERYYGYTGAFRCLAENAGDVAFVKDVTVLQNTDGNNNEAWAKDLKLADFALLCLDGKRKPVTEARSCHLAMAPNHAVVSRMDKVERLKQVLLHQQAKFGRNGSDCPDKFCLFQSETKNLLFNDNTECLARLHGKTTYEKYLGPQYVAGITNLKKCSTSPLLEACEFLRK
B4: in test [1], the ΣFICavg is no less than 1.16.

B5: ClyS: chimeric lysin active against Staphylococci, without SH3-type binding domain; SEQ ID NO:4 (protein)
chain: METLKQAESYIKSKVNTGTDFDGLYGYQCMDLAVDYIYHVTDGKIRMWGNAKDAINNSFGGTATVYKNYPAFRPKYGDVVVWTTGNFATYGHIAIVTNPDPYGDLQYVTVLEQNWNGNGIYKTELATIRTHDYTGITHFIRPNFATESSVKKKDTKKKPKPSNRDGLNKDKIVYDRTNINYNMVLQGKSASKITVGSKAPYNLKWSKGAYFNAKIDGLGATSATRYGDNRTNYRFDVGQAVYAPGTLIYVFEIIDGWCRIYWNNHNEWIWHERLIVKEVF
modifications: Staphlyococcus
On to B5, for which, in test [2], the “Minimal inhibitory concentration, MHB” value turned out to be 8 mg/L; the “Fold decrease in MIC” value was 2; the “Minimal inhibitory concentration, Human serum” value was found to be 4 mg/L. For the same molecule, in test [3], the “Minimal inhibitory concentration, MHB” value came out at 8 mg/L; the “Fold decrease in MIC” value turned out to be 2; the “Minimal inhibitory concentration, Human serum” value amounted to 4 mg/L.

B6: Sal1: anti-staphylococcal lysin, SEQ ID NO:5 (protein)
chain: MAKTQAEINKRLDAYAKGTVDSPYRIKKATSYDPSFGVMEAGAIDADGYYHAQCQDLITDYVLWLTDNKVRTWGNAKDQIKQSYGTGFKIHENKPSTVPKKGWIAVFTSGSYQQWGHIGIVYDGGNTSTFTILEQNWNGYANKKPTKRVDNYYGLTHFIEIPVKAGTTVKKETAKKSASKTPAPKKKATLKVSKNHINYTMDKRGKKPEGMVIHNDAGRSSGQQYENSLANAGYARYANGIAHYYGSEGYVWEAIDAKNQIAWHTGDGTGANSGNFRFAGIEVCQSMSASDAQFLKNEQAVFQFTAEKFKEWGLTPNRKTVRLHMEFVPTACPHRSMVLHTGFNPVTQGRPSQAIMNKLKDYFIKQIKNYMDKGTSSSTVVKDGKTSSASTPATRPVTGSWKKNQYGTWYKPENATFVNGNQPIVTRIGSPFLNAPVGGNLPAGATIVYDEVCIQAGHIWIGYNAYNGNRVYCPVRTCQGVPPNHIPGVAWGVFK
modifications: Staphylococcus
As for B6, in test [2], the “Minimal inhibitory concentration, MHB” value was found to be 2 mg/L; the “Fold decrease in MIC” value is reported as 32; the “Minimal inhibitory concentration, Human serum” value stood at 0.06 mg/L. For the same molecule, in test [3], the “Minimal inhibitory concentration, MHB” value stood at 2 mg/L; the “Fold decrease in MIC” value was determined as 32; the “Minimal inhibitory concentration, Human serum” value is 0.06 mg/L.

B7: CF-301^RHD: rhodamine-labeled PlySs2 (CF-301) (conjugate)
chain: MTTVNEALNNVRAQVGSGVSVGNGECYALASWYERMISPDATVGLGAGVGWVSGAIGDTISAKNIGSSYNWQANGWTVSTSGPFKAGQIVTLGATPGNPYGHVVIVEAVDGDRLTILEQNYGGKRYPVRNYYSAASYRQQVVHYITPPGTVAQSAPNLAGSRSYRETGTMTVTVDALNVRRAPNTSGEIVAVYKRGESFDYDTVIIDVNGYVWVSYIGGSGKRNYVATGATKDGKRFGNAWGTFK
Consider B7, for which the “labeling of the staphylococcal cell wall” value is “no labeling was observed” in test [4] (absence of the HSA pretreatment) and “extensive labeling” in test [4] (cells pretreated with HSA at 40 mg/mL). Also, the “labeling of S. aureus strain MW2” value in the test on S. aureus strain MW2 (mouse serum supplemented with HSA) is “restore high-level binding and fluorescence”; in the test with S. aureus strain MW2 (preincubation with human serum or rabbit serum), “extensive labeling”; in the test on S. aureus strain MW2 (preincubation with rat serum, mouse serum or MHB alone), “poorly labeled cells”.

B8: Serum albumin (Rat, from serum): rat serum albumin (protein, UniProt P02770 25-608, looked up)
Albumin: EAHKSEIAHRFKDLGEQHFKGLVLIAFSQYLQKCPYEEHIKLVQEVTDFAKTCVADENAENCDKSIHTLFGDKLCAIPKLRDNYGELADCCAKQEPERNECFLQHKDDNPNLPPFQRPEAEAMCTSFQENPTSFLGHYLHEVARRHPYFYAPELLYYAEKYNEVLTQCCTESDKAACLTPKLDAVKEKALVAAVRQRMKCSSMQRFGERAFKAWAVARMSQRFPNAEFAEITKLATDVTKINKECCHGDLLECADDRAELAKYMCENQATISSKLQACCDKPVLQKSQCLAEIEHDNIPADLPSIAADFVEDKEVCKNYAEAKDVFLGTFLYEYSRRHPDYSVSLLLRLAKKYEATLEKCCAEGDPPACYGTVLAEFQPLVEEPKNLVKTNCELYEKLGEYGFQNAVLVRYTQKAPQVSTPTLVEAARNLGRVGTKCCTLPEAQRLPCVEDYLSAILNRLCVLHEKTPVSEKVTKCCSGSLVERRPCFSALTVDETYVPKEFKAETFTFHSDICTLPDKEKQIKKQTALAELVKHKPKATEDQLKTVMGDFAQFVDKCCKAADKDNCFATEGPNLVARSKEALA
For the molecule B8, in test [1], the ΣFICavg is recorded as no less than 1.16.
